Reference: publication PMC9820267

Target: PSD-95 (DLG4) (UniProt Q62108)
Assay: GST pull-down from cotransfected COS7 lysate
Details: reference: wild type (treatment condition of comparison not stated); sites T585,T612

binding against the reference: weaker
Substance: PSD-93 (DLG2) PDZ3-SH3, 390-620 (from UniProt Q91XM9) T585A/T612A
